Data reported in patent publication US20070086956A1, “Method for accelerating the rate of mucociliary clearance” (BAYER AKTIENGESELLSCHAFT, priority 1998, published 2007).
Like-named read-outs stand apart in the source and are kept apart here.

Key:
human plasma kallikrein = target: T1, human plasma kallikrein (Homo sapiens, UniProt P03952); assay: Anti-protease activity before and after nebulization; assay type: biochemical
T1 construct: purchased Sigma (St. Louis, Mo.)
Protocol: The aim of this study was to assess the anti-protease activity of Bikunin (1-170) described in Example 17 following nebulization. All studies were performed with Bikunin formulated in phosphate buffered saline, pH 7.4 (137 mM NaCl, 3 mM KCl, 3 mM KH2PO4, 8 mM Na2HPO4, 0.02 g/L Tween 80).
Raindrop® Medication Nebulizer: Bikunin was aerosolized at concentrations of 1 and 3 mg/mL. The nebulizer cup was filled with 2.5 mL of Bikunin solution. Aerosolisation was performed at 7.35 L/min or 35 psi.
Collison Nebulizer: Bikunin was aerosolised at a concentration of 4.7 mg/mL. The nebulizer cup was filled with 2.5 mL of Bikunin solution. Aerosolisation was performed at 35 psi.
Aerosolised Bikunin was collected using a twin impinger (6.4 um mean aerodynamic particle cut-off size at 60 L/min through the system). The impinger works on the principle of liquid impingement and divided the aerosol into a non-respirable fraction (>6.4 um collected in Stage 1) and a respirable fraction (<6.4 um collected in Stage 2).
Bikunin activity was measured in vitro by its inhibition of human plasma kallikrein.

[1] = tested on: human bronchial epithelial cell (HBE); assay: Short circuit current (Isc) in cultured human bronchial epithelial (HBE) cells, Ussing chamber; assay type: cell-based; conditions: for sodium current: over a 90 minute period, FIG. 17
Protocol: Tertiary HBE cell monolayer grown to confluence were mounted in modified Ussing chambers, immersed in Krebs buffer (KBR) solution and bubbled with 95% O2/5% CO2 warmed to 37 C.
Cells were left to equilibrate for 20 minutes before calibrating for background noise and fluid resistance. Transepithelial potential difference was then clamped to 0 mV using a WPI EVC 4000 voltage clamp. Ag/AgCl electrodes were used to monitor Isc. […] Once a response to amiloride was seen, it was washed out with KBR solution. […] 90 minutes following agent treatment, amiloride (10 uM) was added. Once the current was stable forskolin (10 uM) and then bumetanide (100 uM) was added.
Tertiary HBE cell monolayers grown to confluence were mounted in modified Ussing chambers, immersed in Krebs buffer (KBR) solution and bubbled with 95% O2/5% CO2 warmed to 37 C.
Cells were left to equilibrate for 20 minutes before calibrating for background noise and fluid resistance. Transepithelial potential difference was then clamped to 0 mV using a WPI EVC 4000 voltage clamp. Ag/AgCI electrodes were used to monitor Isc. […] Once a response to amiloride was seen, it was washed out with KBR solution. […] 90 minutes following agent treatment, amiloride (10 uM) was added.

guinea pig trachea = assay: Tracheal potential difference in the guinea-pig; assay type: in vivo; conditions: 5 ug topical instillation; three hours of treatment; relative to vehicle; FIG. 15
Protocol: The aim of this study was to investigate the effect of the Kunitz serine protease inhibitor Bikunin, and the sodium channel blocker amiloride on guinea-pig tracheal potential difference 3 hours post treatment. These agents were delivered into the cephalad trachea by topical instillation. TPD was monitored 2 hours later for 60 minutes. The procedure used in this Example is described in Newton et al. in “Cilia, Mucus and Mucociliary Interactions,” Ed., Baum, G. L. et al., Marcel Dekker, New York, 1998; Newton et al., Ped. Pulm. S17, Abs. 364, 1998).
Aqueous formulations of Bikunin (1-170) (5 and 50 ug/mL (SEQ ID NO: 52)) (as described in Example 17 below) and amiloride (obtained from Sigma Chemicals, St. Louis, Mo., USA)(100 uM) were prepared, sterile filtered and endotoxin tested prior to use. […]
Two hours following agent treatment, guinea-pigs were anaesthetised for a second time with Hypnom® and Hypnovel® and immobilised in a supine position. Rectal temperature, measured with a thermistor probe was maintained at 37° C. by manual adjustment of a heat lamp. […] 20 min. following induction of i.m. anaesthesia the tracheal agar electrode was inserted into the cephalad trachea and tracheal potential difference was measured for 60 minutes. […]

T1 sequence (P03952 391-638 limits assumed): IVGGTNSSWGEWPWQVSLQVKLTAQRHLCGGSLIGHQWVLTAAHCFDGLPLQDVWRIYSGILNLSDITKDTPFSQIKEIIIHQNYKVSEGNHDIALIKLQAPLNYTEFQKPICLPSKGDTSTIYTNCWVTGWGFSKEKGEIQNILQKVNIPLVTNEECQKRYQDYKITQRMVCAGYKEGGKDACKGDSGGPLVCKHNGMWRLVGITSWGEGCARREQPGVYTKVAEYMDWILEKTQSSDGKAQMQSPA
T1 sequence (P03952 20-390 partner limits assumed): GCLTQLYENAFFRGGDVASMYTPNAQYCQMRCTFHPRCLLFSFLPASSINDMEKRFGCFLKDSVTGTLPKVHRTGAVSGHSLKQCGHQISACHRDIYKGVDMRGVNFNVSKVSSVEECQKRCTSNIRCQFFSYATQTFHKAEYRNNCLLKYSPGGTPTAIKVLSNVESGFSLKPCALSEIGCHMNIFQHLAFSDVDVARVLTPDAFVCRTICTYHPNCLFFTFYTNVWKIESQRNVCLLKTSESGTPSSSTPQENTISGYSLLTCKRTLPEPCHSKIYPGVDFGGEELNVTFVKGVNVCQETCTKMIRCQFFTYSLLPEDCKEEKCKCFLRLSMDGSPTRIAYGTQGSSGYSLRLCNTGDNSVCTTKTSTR

- Ki (human plasma kallikrein; Collison nebulizer, 4.7 mg/mL, read-out: Activity (Ki), post-nebulization): 0.45 nM
- Ki (human plasma kallikrein; Collison nebulizer, 4.7 mg/mL, read-out: Activity (Ki), pre-nebulization): 0.27 nM
- Ki (human plasma kallikrein; Raindrop nebulizer, 1 mg/mL, read-out: Activity (Ki), post-nebulization): 0.76 nM
- Ki (human plasma kallikrein; Raindrop nebulizer, 1 mg/mL, read-out: Activity (Ki), pre-nebulization): 0.47 nM
- Ki (human plasma kallikrein; Raindrop nebulizer, 3 mg/mL, read-out: Activity (Ki), post-nebulization): 0.62 nM
- Ki (human plasma kallikrein; Raindrop nebulizer, 3 mg/mL, read-out: Activity (Ki), pre-nebulization): 0.52 nM
B1: CHO Bikunin (1-170): Glycosylated placental bikunin (1-170), SEQ ID NO: 52, expressed in Chinese hamster ovary cells (Example 17) (protein, listed as Homo sapiens)
chain: ADRERSIHDFCLVSKVVGRCRASMPRWWYNVTDGSCQLFVYGGCDGNSNNYLTKEECLKKCATVTENATGDLATSRNAADSSVPSAPRRQDSEDHSSDMFNYEEYCTANAVTGPCRASFPRWYFDVERNSCNNFIYGGCRGNKNSYRSEEACMLRCFRQQENPPLPLGSK
modifications: glycosylated, CHO-expressed
- stability to aerosolization (human plasma kallikrein; Raindrop and Collison nebulizers): stable to aerosolization and retained its anti-protease activity
- Forskolin induced cAMP-mediated chloride secretion and monolayer resistance ([1]; 70 nM): unaffected
- sodium current ([1]; 70 nM): decreases sodium current
- sodium current ([1]; 70 nM, listed as Bukinin): inhibited sodium current
- inhibition of Na+ Isc ([1]; 5 ug.ml−1, normal HBE cells, n=6, further study): 84%
- sodium short circuit current ([1]; 5 ug/mL, FIG. 20): decrease sodium short circuit current
- tracheal potential difference (guinea pig trachea): inhibited the potential difference
